The values below come from patent publication US20250171531A1 (ORIONIS BIOSCIENCES, published 2025).

Assay [1] has as its target CD8alpha on CD8 positive T cells of PBMCs (UniProt P01732 22-235, limits assumed). Nature of the assay: cell-based or functional assay.
Assay [2] deals with T1, recombinant IL-2 (Acro Biosystems) (UniProt P60568 21-153).
T1 construct: also called Interleukin-2; wild type recombinant IL-2
The experiment in a line: BLI (Octet RED96). From the text:
(§1) In brief, recombinant IL-2 (Acro Biosystems) was biotinylated using the Pierce Antibody Biotinylation Kit for IP (ThermoFisher) and loaded on Streptavidin sensors. […] Sensorgrams and calculated binding kinetics provided in FIG. 2 illustrate that (i) all anti-IL-2 constructs clearly bind to biotinylated IL-2; (ii) for both anti-IL-2 antibody scFv variants, the VL-VH configuration (referred to as scFv_v2) seems to work best; and (iii) TCB2-based anti-IL-2 constructs tend to associate faster, while NARA1 anti-IL-2 constructs dissociate slower.

For assay [3], the target named is T1, recombinant IL-2 (Acro Biosystems). The experiment in a line: BLI, biotinylated IL-2 on streptavidin sensors, seven concentrations of construct as analyte.
From the text: as §1
On the technique in general: In BLI a coated tip is dipped into the sample, and binding shifts an interference pattern.

T1 sequence (P60568 21-153 limits assumed): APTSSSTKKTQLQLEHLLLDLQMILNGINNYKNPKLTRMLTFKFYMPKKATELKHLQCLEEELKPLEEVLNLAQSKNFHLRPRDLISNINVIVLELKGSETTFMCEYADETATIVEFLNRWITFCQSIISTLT
Sequence of CD8alpha on CD8 positive T cells of PBMCs (P01732 22-235 limits assumed): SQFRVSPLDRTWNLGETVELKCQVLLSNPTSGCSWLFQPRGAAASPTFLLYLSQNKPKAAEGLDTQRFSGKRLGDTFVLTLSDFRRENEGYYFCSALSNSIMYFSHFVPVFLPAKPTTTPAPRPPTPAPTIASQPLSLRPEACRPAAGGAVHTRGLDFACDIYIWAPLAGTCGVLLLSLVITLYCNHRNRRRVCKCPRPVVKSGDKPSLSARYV

B1: 'knob-in-hole' Fc-Anti-IL-2 construct (TCB2 scFv_v2-hFc3 + hFc4-OKT8 scFv) (bispecific antibody)
chain 1: DIVMTQSPASLSMAIGEKVTIRCITSTDIDDDMNWYQQKPGEPPKLLISEGNTLRPGVPSRFSSSGYGTDFVFTIENMLSEDVADYYCLQSDNLPYTFGGGTKLEIKGGGGSGGGGSGGGGSEVQLQQSGAELARPGASVKLSCKASGYTFTTYWIQWVKQRPGQGLEWIGAIYPGDGDTRYIQNFKGKATLTADKSSSTAYMQLSSLASEDSAVYYCARSLATRGFYAMDYWGQGTSVTVSSGGSGGSGGSGGSGGSDKTHTCPPCPAPEAAGGPSVFLFPPKPKDTLMISRTPEVTCVVVDVSHEDPEVKFNWYVDGVEVHNAKTKPREEQYNSTYRVVSVLTVLHQDWLNGKEYKCKVSNKALPAGIEKTISKAKGQPREPQVCTLPPSRDELTKNQVSLSCAVKGFYPSDIAVEWESNGQPENNYKTTPPVLDSDGSFFLVSKLTVDKSRWQQGNVFSCSVMHEALHNHYTQKSLSLSPGK
chain 2: not shown
Consider B1, for which the “IL-2 driven STAT5 phosphorylation in CD8+ over Treg cells” value in assay [1] came out at 10 fold.

B2: anti-IL-2 Ab NARA1 scFv_VH-VL-3*GGGGS-anti-CD8 OKT8 scFv_VH-VL-6*His (bispecific antibody)
chain: QVQLQQSGAELVRPGTSVKVSCKASGYAFTNYLIEWVKQRPGQGLEWIGVINPGSGGTNYNEKFKGKATLTADKSSSTAYMQLSSLTSDDSAVYFCARWRGDGYYAYFDVWGAGTTVTVSSGGGGSGGGGSGGGGSDIVLTQSPASLAVSLGQRATISCKASQSVDYDGDSYMNWYQQKPGQPPKLLIYAASNLESGIPARFSGSGSGTDFTLNIHPVEEEDAATYYCQQSNEDPYTFGGGTKLEIKGGGGSGGGGSGGGGSEVQLVQSGAEVKKPGASVKVSCKASGFNIKDTYIHWVRQAPGQGLEWIGRIDPANDNTLYASKFQGRATITADTSTSTAYLELSSLRSEDTAVYYCGRGYGYYVFDHWGQGTLVTVSSGGGGSGGGGSGGGGSDVQITQSPSSLSASVGDRVTITCRTSRSISQYLAWYQEKPGKTNKLLIYSGSTLQSGIPSRFSGSGSGTDFTLTISSLQPEDFATYYCQQVNEFPPTFGQGTKVEIKHHHHHH
notes: Single chain of two scFvs with a C-terminal His6 tag
On to B2, for which the binding result in assay [2] is “binds”.

B3: anti-IL-2 Ab TCB2 scFv_VH-VL-3*GGGGS-anti-CD8 OKT8 scFv_VH-VL-6*His (bispecific antibody)
chain: EVQLQQSGAELARPGASVKLSCKASGYTFTTYWIQWVKQRPGQGLEWIGAIYPGDGDTRYIQNFKGKATLTADKSSSTAYMQLSSLASEDSAVYYCARSLATRGFYAMDYWGQGTSVTVSSGGGGSGGGGSGGGGSDIVMTQSPASLSMAIGEKVTIRCITSTDIDDDMNWYQQKPGEPPKLLISEGNTLRPGVPSRFSSSGYGTDFVFTIENMLSEDVADYYCLQSDNLPYTFGGGTKLEIKGGGGSGGGGSGGGGSEVQLVQSGAEVKKPGASVKVSCKASGFNIKDTYIHWVRQAPGQGLEWIGRIDPANDNTLYASKFQGRATITADTSTSTAYLELSSLRSEDTAVYYCGRGYGYYVFDHWGQGTLVTVSSGGGGSGGGGSGGGGSDVQITQSPSSLSASVGDRVTITCRTSRSISQYLAWYQEKPGKTNKLLIYSGSTLQSGIPSRFSGSGSGTDFTLTISSLQPEDFATYYCQQVNEFPPTFGQGTKVEIKHHHHHH
notes: Single chain of two scFvs with a C-terminal His6 tag; Leader (residues 1-19) left out
For B3, the binding result in assay [3] is recorded as “binds”.

B4: anti-IL-2 Ab NARA1 scFv_VL-VH-3*GGGGS-anti-CD8 OKT8 scFv_VH-VL-6*His (bispecific antibody)
chain: DIVLTQSPASLAVSLGQRATISCKASQSVDYDGDSYMNWYQQKPGQPPKLLIYAASNLESGIPARFSGSGSGTDFTLNIHPVEEEDAATYYCQQSNEDPYTFGGGTKLEIKGGGGSGGGGSGGGGSQVQLQQSGAELVRPGTSVKVSCKASGYAFTNYLIEWVKQRPGQGLEWIGVINPGSGGTNYNEKFKGKATLTADKSSSTAYMQLSSLTSDDSAVYFCARWRGDGYYAYFDVWGAGTTVTVSSGGGGSGGGGSGGGGSEVQLVQSGAEVKKPGASVKVSCKASGFNIKDTYIHWVRQAPGQGLEWIGRIDPANDNTLYASKFQGRATITADTSTSTAYLELSSLRSEDTAVYYCGRGYGYYVFDHWGQGTLVTVSSGGGGSGGGGSGGGGSDVQITQSPSSLSASVGDRVTITCRTSRSISQYLAWYQEKPGKTNKLLIYSGSTLQSGIPSRFSGSGSGTDFTLTISSLQPEDFATYYCQQVNEFPPTFGQGTKVEIKHHHHHH
notes: as for B3
Turning to B4, in assay [3], the binding result was “binds”.

B5: anti-IL-2 Ab TCB2 scFv_VL-VH-3*GGGGS-anti-CD8 OKT8 scFv_VH-VL-6*His (bispecific antibody)
chain: DIVMTQSPASLSMAIGEKVTIRCITSTDIDDDMNWYQQKPGEPPKLLISEGNTLRPGVPSRFSSSGYGTDFVFTIENMLSEDVADYYCLQSDNLPYTFGGGTKLEIKGGGGSGGGGSGGGGSEVQLQQSGAELARPGASVKLSCKASGYTFTTYWIQWVKQRPGQGLEWIGAIYPGDGDTRYIQNFKGKATLTADKSSSTAYMQLSSLASEDSAVYYCARSLATRGFYAMDYWGQGTSVTVSSGGGGSGGGGSGGGGSEVQLVQSGAEVKKPGASVKVSCKASGFNIKDTYIHWVRQAPGQGLEWIGRIDPANDNTLYASKFQGRATITADTSTSTAYLELSSLRSEDTAVYYCGRGYGYYVFDHWGQGTLVTVSSGGGGSGGGGSGGGGSDVQITQSPSSLSASVGDRVTITCRTSRSISQYLAWYQEKPGKTNKLLIYSGSTLQSGIPSRFSGSGSGTDFTLTISSLQPEDFATYYCQQVNEFPPTFGQGTKVEIKHHHHHH
notes: as for B3
As for B5, the binding result in assay [3] is “binds”.
